Columns and labels:
pro-dom-BDNF = target: T1, pro-dom-BDNF (Homo sapiens, UniProt P23560); assay: SPR direct binding of sortilin peptides to immobilized pro-dom-BDNF; settings: for direct interaction with immobilized pro-dom-BDNF: concentration series of peptide, FIG. 18; for affinity towards pro-dom-BDNF compared with pro-dom-NGF: single peptide concentration, identical amounts of immobilized pro-dom-NGF and -BDNF
T1 construct: pro-dom-BDNF (residues Ala^1-Arg^110); made in house; host or cells: E. coli BL21/DE3
T1 sequence (P23560 19-128 limits assumed): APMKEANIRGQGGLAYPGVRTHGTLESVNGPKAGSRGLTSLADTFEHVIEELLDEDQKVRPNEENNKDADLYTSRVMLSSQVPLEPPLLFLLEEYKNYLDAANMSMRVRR
Source text: (§1) FIG. 18: Surface plasmon resonance binding analysis of sortilin peptides to pro-dom-NGF and -BDNF. The direct interaction between sortilin peptides (as identified by SPOT analysis) and the pro-domains of NGF and BDNF was verified by surface plasmon resonance analysis using immobilized pro-dom-NGF and -BDNF. […] The numbering in this figure refers to the mature part of Sortilin.
(§2) A biosensor chip from Biacore (CM5, cat. no. BR-1000-14) was activated using the NHS/EDC method as described by supplier followed by coating with Sortilin to a protein densitiy of 79 fmol/mm2, and used for affinity measurements of the recombinant pro-domains of NGF and BDNF. Regeneration of the flow cell after each cycle of ligand binding experiment was performed by two 10 uL pulses of regeneration buffer (10 mM glycine-HCl, pH 4.0, 500 mM NaCl, 20 mM EDTA, and 0.005% Tween-20) and a single injection of 0.001% SDS. Fitting of sensorgrams for affinity estimations was performed using the Biaevaluation version 3.1. Following similar protocols, immobilization of pro-dom-NGF or pro-dom-BDNF was also performed on a CM5 biosensor chip using the NHS/EDC coupling kit according to manufactures instructions (Biacore, Sweden), giving similar surface densitites of immobilized protein (˜300 fmol/mm2). […] This chip was subsequent used to examine the binding of 390 nM wild-type Sortilin domain in CaHBS buffer at a flow of 5 uL/min, which in the absence of any competing peptide gave a ˜300 RU signal.

pro-dom-NGF = target: T2, pro-dom-NGF (Homo sapiens, UniProt P01138, A35V); assay: SPR direct binding of sortilin peptides to immobilized pro-dom-NGF; settings: concentration series of peptide, FIG. 18
T2 construct: pro-dom-NGF (residues Glu^1-Arg^102); made in house; host or cells: E. coli BL21/DE3
T2 sequence (P01138 19-121 A35V): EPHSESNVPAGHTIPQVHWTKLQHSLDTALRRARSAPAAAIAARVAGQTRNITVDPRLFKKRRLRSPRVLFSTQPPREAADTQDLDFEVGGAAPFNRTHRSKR
Source text: as §1
A biosensor chip from Biacore (CM5, cat. no. BR-1000-14) was activated using the NHS/EDC method as described by supplier followed by coating with Sortilin to a protein densitiy of 79 fmol/mm2, and used for affinity measurements of the recombinant pro-domains of NGF and BDNF. Regeneration of the flow cell after each cycle of ligand binding experiment was performed by two 10 uL pulses of regeneration buffer (10 mM glycine-HCl, pH 4.0, 500 mM NaCl, 20 mM EDTA, and 0.005% Tween-20) and a single injection of 0.001% SDS. Fitting of sensorgrams for affinity estimations was performed using the Biaevaluation version 3.1. Following similar protocols, immobilization of pro-dom-NGF or pro-dom-BDNF was also performed on a CM5 biosensor chip using the NHS/EDC coupling kit according to manufactures instructions (Biacore, Sweden), giving similar surface densitites of immobilized protein (˜300 fmol/mm2). […]

[1] = target: T3, Sortilin binding to immobilized pro-dom-BDNF (Homo sapiens, UniProt P23560); assay: SPR competition: Sortilin binding to immobilized pro-dom-BDNF in presence of sortilin peptide
T3 construct: pro-dom-BDNF (residues Ala^1-Arg^110); made in house; host or cells: pro-dom-BDNF: E. coli BL21/DE3; Sortilin: EBNA293 cells
T3 sequence (P23560 19-128 limits assumed): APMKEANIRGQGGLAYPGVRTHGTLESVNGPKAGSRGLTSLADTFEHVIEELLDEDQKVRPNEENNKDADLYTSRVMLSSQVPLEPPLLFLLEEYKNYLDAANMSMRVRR
Description: FIG. 19: Surface plasmon resonance analysis of competition studies by the sortilin peptides.
as §2

[2] = target: T4, p75-IgG-Fc chimeric protein (Homo sapiens, UniProt P08138); assay: Surface plasmon resonance (BIAcore) binding to immobilized p75-IgG-Fc; settings: 91.5 fmol/mm^2 immobilized p75-IgG-Fc; calculated from on and off rates
T4 construct: purchased R&D systems (Oxon, UK)
Description: (§3) FIG. 2: Characterization of NGF binding to p75, TrkA, and Sortilin as measured by surface plasmon resonance analysis (BIAcore). Binding of 50-500 nM NGF was measured to 91.5 fmol/mm^2 immobilized p75-IgG-Fc chimeric protein (upper panel), to 66 fmol/mm^2 immobilized TrkA-IgG-Fc (middle panel), and to 51 fmol/mm^2 purified Sortilin extracellular domain (lower panel). The on and off rates—100 to 600 seconds and 600 to 1000 seconds, respectively—were recorded and the Kd values for NGF binding were calculated to ˜1 nM for p75, ˜2 nM for TrkA, and ˜8 nM for Sortilin. […]
(§4) FIG. 3: Characterization of proNGF binding to p75, TrkA, and Sortilin as measured by surface plasmon resonance analysis (Biacore). Binding of 25-500 nM proNGF was measured to 91.5 fmol/mm^2 immobilized p75-IgG-Fc chimeric protein (upper panel), to 66 fmol/mm^2 immobilized TrkA-IgG-Fc (middle panel), and to 51 fmol/mm^2 purified Sortilin extracellular domain (lower panel). […]
(§5) FIG. 4: Characterization of binding of the proNGF propeptide to p75, TrkA, and Sortilin as measured by surface plasmon resonance analysis (Biacore). Binding of 25-500 nM propeptide was measured to 91.5 fmol/mm^2 immobilized p75-IgG-Fc chimeric protein (upper panel), to 66 fmol/mm^2 immobilized TrkA-IgG-Fc (middle panel), and to 51 fmol/mm^2 purified Sortilin extracellular domain (lower panel). […]

TrkA-IgG-Fc = target: T5, TrkA-IgG-Fc (Homo sapiens, UniProt P04629); assay: Surface plasmon resonance (BIAcore) binding to immobilized TrkA-IgG-Fc; settings: 66 fmol/mm^2 immobilized TrkA-IgG-Fc; calculated from on and off rates
T5 construct: purchased R&D systems (Oxon, UK)
Description: as §3, §4, §5

[3] = target: T6, Sortilin extracellular domain (Homo sapiens, UniProt Q99523); assay: Surface plasmon resonance (BIAcore) binding to immobilized purified Sortilin extracellular domain; settings: 51 fmol/mm^2 purified Sortilin extracellular domain; calculated from on and off rates
T6 construct: 51 fmol/mm^2 purified Sortilin extracellular domain; made in house; host or cells: stably transfected CHO cells
T6 sequence (Q99523 78-755 limits assumed): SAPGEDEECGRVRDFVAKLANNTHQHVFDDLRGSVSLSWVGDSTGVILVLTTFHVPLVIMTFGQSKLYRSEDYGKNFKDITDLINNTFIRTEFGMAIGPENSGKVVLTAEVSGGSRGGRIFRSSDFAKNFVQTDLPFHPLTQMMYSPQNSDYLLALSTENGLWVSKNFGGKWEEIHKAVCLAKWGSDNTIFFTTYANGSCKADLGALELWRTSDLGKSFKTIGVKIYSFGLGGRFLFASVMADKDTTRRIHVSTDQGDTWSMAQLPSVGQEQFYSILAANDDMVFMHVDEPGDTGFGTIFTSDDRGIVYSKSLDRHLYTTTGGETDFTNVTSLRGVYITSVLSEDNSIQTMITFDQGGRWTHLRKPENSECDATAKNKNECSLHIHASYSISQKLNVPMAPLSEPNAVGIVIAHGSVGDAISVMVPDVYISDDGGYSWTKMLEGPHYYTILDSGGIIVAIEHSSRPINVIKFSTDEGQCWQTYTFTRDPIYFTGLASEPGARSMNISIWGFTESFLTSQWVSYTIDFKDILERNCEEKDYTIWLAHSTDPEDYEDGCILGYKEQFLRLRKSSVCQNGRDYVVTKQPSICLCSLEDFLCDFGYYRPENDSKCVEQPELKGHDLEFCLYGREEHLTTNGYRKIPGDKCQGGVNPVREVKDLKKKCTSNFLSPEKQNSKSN
Description: as §3, §4, §5

[4] = target: T7, proNGF binding to immobilized Sortilin (Homo sapiens, UniProt Q99523); assay: Inhibition of proNGF binding to immobilized Sortilin (Biacore); settings: 5 μM inhibitor prebound, then coinjection; 51 fmol/mm^2 Sortilin (FIG. 6)
T7 construct: 51 fmol/mm^2 purified Sortilin extracellular domain; made in house; host or cells: Sortilin: stably transfected CHO cells; proNGF: E. coli
T7 sequence (Q99523 78-755 limits assumed): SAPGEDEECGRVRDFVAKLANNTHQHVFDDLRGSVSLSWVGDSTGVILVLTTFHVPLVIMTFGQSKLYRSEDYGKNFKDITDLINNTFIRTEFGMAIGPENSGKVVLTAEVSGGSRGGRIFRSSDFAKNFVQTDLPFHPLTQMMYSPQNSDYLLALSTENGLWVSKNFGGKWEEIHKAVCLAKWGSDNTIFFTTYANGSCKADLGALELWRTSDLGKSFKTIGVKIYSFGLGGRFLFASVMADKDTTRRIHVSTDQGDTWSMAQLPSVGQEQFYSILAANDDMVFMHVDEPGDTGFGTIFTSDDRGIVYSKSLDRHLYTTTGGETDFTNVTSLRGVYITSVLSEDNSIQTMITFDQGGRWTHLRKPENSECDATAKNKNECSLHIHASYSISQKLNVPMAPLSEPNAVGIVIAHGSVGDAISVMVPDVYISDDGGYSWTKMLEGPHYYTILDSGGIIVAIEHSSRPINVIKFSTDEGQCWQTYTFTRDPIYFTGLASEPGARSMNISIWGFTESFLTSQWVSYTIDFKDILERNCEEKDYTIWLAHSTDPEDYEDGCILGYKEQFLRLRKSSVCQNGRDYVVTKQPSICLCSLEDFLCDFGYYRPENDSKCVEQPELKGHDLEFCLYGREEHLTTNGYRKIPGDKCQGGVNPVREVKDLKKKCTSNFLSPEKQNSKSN

T4 sequence (P08138 with tags, fused parts or gaps limits assumed): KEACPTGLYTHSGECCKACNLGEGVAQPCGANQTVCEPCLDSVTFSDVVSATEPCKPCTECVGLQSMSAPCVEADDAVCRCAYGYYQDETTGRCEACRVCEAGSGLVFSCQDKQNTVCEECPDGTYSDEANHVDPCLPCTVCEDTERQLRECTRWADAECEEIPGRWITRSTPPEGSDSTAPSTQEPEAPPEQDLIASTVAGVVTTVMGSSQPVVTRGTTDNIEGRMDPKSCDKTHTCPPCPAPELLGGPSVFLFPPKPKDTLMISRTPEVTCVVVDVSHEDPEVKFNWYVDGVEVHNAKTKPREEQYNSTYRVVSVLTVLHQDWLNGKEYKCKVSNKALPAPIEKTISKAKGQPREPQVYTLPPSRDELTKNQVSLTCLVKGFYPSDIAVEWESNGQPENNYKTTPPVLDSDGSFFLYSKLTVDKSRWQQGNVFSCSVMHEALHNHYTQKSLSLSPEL
T5 sequence (P04629 34-407 isoform P04629-2 limits assumed): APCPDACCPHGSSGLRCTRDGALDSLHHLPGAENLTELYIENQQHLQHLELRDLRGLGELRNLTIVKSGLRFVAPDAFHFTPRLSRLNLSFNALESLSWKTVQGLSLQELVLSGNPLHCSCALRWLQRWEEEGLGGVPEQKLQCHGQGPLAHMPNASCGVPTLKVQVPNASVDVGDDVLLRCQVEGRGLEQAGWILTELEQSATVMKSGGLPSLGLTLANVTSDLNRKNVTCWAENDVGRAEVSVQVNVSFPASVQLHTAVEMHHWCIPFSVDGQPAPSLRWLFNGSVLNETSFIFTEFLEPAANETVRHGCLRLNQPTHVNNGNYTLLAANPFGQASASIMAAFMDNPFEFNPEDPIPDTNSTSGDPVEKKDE

For RIFRSSDFAKNF (listed as Homo Sapiens), which “direct interaction with immobilized pro-dom-BDNF” value (pro-dom-BDNF) is on record?
The value was “direct binding”.

And the “affinity towards pro-dom-BDNF compared with pro-dom-NGF” value (pro-dom-BDNF)?
Its value is “higher affinity of the peptides towards BDNF than NGF”.

What about the “direct interaction with immobilized pro-dom-NGF” value (pro-dom-NGF) of the same molecule?
The value was “direct binding”.

How did the “direct interaction with immobilized pro-dom-BDNF” value (pro-dom-BDNF) turn out when “RSSDFAKNFVQTDLPF (listed as Homo Sapiens)” was run?
The value was “direct binding”.

What about the “affinity towards pro-dom-BDNF compared with pro-dom-NGF” value (pro-dom-BDNF) of the same molecule?
The value was “higher affinity of the peptides towards BDNF than NGF”.

What about the “inhibition of Sortilin binding to immobilized pro-dom-BDNF” value ([1]; 300 uM peptide, 390 nM wild-type Sortilin domain, CaHBS buffer) of the same molecule?
Its value is roughly 66%.

And the “competition of sortilin binding to immobilized pro-dom-BDNF” value ([1]; FIG. 19, + peptide)?
The value was “significantly inhibited”.

And the “direct interaction with immobilized pro-dom-NGF” value (pro-dom-NGF)?
The value was “direct binding”.

With “proNGF: Human recombinant proNGF produced and purified in E. coli” as the molecule, how does the Kd [2] read?
The Kd was roughly 12 nM.

B1: proNGF propeptide: human NGF-propeptide expressed in E. coli (protein)
chain: EPHSESNVPAGHTIPQVHWTKLQHSLDTALRRARSAPAAAIAARVAGQTRNITVDPRLFKKRRLRSPRVLFSTQPPREAADTQDLDFEVGGAAPFNRTHRSKR
For B1, which “Kd for binding to p75” value [2] is on record?
Its value is “no detectable binding”.

And the “Kd for binding to TrkA” value (TrkA-IgG-Fc)?
The value was “no detectable binding”.

What about the Kd [3] of the same molecule?
Its Kd is roughly 8 nM.

What about the “inhibition of binding of 200 nM proNGF to immobilized Sortilin” value [4] of the same molecule?
Its value is roughly 85%.
